Consider three molecules from US20240209109A1 (CONCEPT TO MEDICINE BIOTECH, published 2024).

The target of assay [1] is T1, human CD40 on cells (human, UniProt P25942 21-277).
T1 construct: whole, on cells; also called cell surface CD40; Jurkat-CD40
The experiment in a line: FACS on human dendritic cells, MFI.

Assay [2] deals with T1, human CD40 on cells. The experiment in a line: FACS on Jurkat cells overexpressing human CD40, PE anti-human IgG, MFI. As for the experimental part:
To evaluate their binding affinity to cell surface CD40, chimeric anti-CD40 monospecific antibodies were tested in Jurkat cell lines that overexpressed CD40 by FACS. A total number of 1×10⁵ Jurkat-CD40 cells in each well were incubated with 10-fold serially diluted antibodies starting from 100 nM for 30 minutes at 4° C. in FACS buffer. After wash by FACS buffer, PE conjugated-anti-human IgG antibody was added to each well and incubated at 4° C. for 30 minutes. After wash, MFI of PE was evaluated by MACSQuant Analyzer 16.

Changes are numbered by the printed parent chain.

T1 sequence (P25942 21-277): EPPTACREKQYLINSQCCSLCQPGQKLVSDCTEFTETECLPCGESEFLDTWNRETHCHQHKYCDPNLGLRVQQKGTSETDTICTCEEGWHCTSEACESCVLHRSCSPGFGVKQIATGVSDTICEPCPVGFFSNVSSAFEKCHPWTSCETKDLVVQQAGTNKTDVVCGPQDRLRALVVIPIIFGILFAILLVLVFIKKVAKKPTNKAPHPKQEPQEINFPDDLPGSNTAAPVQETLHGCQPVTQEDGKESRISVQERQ

B1: b16 (42p155z2)-LALA humanized anti-5T4/CD40 bispecific antibody (bispecific antibody, human IgG1, kappa, L234A L235A)
heavy 1: QVQLVQSGAEVKKPGASVKVSCKASGYAFSSSWMNWVRQAPGQGLEWMGRIYREDGHTNYNGKFKGRVTMTADKSITTAYMELSRLRSDDTAVYYCANGGAMDYWGQGTLVTVSSASTKGPSVFPLAPSSKSTSGGTAALGCLVKDYFPEPVTVSWNSGALTSGVHTFPAVLQSSGLYSLSSVVTVPSSSLGTQTYICNVNHKPSNTKVDKKVEPKSCDKTHTCPPCPAPEAAGGPSVFLFPPKPKDTLMISRTPEVTCVVVDVSHEDPEVKFNWYVDGVEVHNAKTKPREEQYNSTYRVVSVLTVLHQDWLNGKEYKCKVSNKALPAPIEKTISKAKGQPREPQVCTLPPSREEMTKNQVSLSCAVKGFYPSDIAVEWESNGQPENNYKTTPPVLDSDGSFFLVSKLTVDKSRWQQGNVFSCSVMHEALHNHYTQKSLSLSPGK
light: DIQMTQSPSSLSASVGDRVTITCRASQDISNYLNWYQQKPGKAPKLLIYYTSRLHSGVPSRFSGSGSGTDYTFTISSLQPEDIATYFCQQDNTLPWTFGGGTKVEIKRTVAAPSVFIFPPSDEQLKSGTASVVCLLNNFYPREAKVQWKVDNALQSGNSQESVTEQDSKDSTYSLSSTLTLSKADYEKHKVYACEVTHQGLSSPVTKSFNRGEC
heavy 2: not shown
notes: 1+2 b16 format, humanized 5T4 arm; also called b16 (42p15522)-LALA
Broadly, the EC50 (read off the curve) is the concentration that produces a half-maximal response. High values mean weaker potency, low ones greater potency. Turning to B1, the “EC50 (read off the curve)” value with human CD40 on cells [1] was about 0.6 nM.

B2: 2p1294 chimeric monospecific antibody (antibody, V domains shown)
VH: QVQLVESGGGLVQPGGSLRLSCAASGFSFRRYTMSWVRQAPGKGLEWVSAISDNGAITTYTESAQGRFTISRDNAKNTLYLQMNSLKPEDTAVYYCAQGGGSNYYRESWGQGTQVTVSS
notes: chimeric monospecific antibody made from the alpaca VHH
Regarding B2, the “EC50 (read off the curve)” value with human CD40 on cells [2] is about 0.2 nM.

B3: 42p655 chimeric monospecific antibody (antibody, V domains shown)
VH: B2 VH with Q1A, S28A, A50S, S52T, A56S, T61A, Y95H
notes: as for B2
Take B3: in the assay with human CD40 on cells [2], the “EC50 (read off the curve)” value was about 0.2 nM.
